Laboratory results published in patent US12703750 (NORTHWESTERN UNIVERSITY, dated 2026).
Substitutions are numbered along the chain they refer to. In names and notes the source's numbering stands.

T1: human recombinant IL13Rα2hFc (cat #7147-IR-100, R&D Systems) (human, UniProt Q14627 27-343)
T1 construct: Bought; also called recombinant human IL13Ra2; not shown: human Fc ('hFc') of the bought fusion protein
T1 sequence (looked up): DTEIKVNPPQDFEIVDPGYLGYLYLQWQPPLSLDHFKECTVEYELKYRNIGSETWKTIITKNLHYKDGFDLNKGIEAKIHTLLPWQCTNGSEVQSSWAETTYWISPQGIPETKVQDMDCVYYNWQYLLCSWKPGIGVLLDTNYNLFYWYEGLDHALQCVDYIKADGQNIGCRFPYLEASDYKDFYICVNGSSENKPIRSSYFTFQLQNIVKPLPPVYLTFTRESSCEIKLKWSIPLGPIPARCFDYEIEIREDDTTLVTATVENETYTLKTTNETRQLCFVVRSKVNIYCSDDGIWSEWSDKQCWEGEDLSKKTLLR

T2: Human IL13Rα2 (human, UniProt Q14627 27-343, limits assumed)
T2 construct: also called human recombinant IL13Rα2; Human IL13Ra2
T2 sequence (looked up): T1 sequence (looked up)

B1: Murine version of the BTE (scFv of anti-CD3 Okt3 and scFv of the murine anti-IL13Rα2 antibody) (bispecific antibody, V domains shown, not shown: small tags and cut ends)
VH: QVQLQQPGAELVRPGASVKLSCKASGYTFSNYLMNWVKQRPEQDLDWIGRIDPYDGDIDYNQNFKDKAILTVDKSSSTAYMQLSSLTSEDSAVYYCARGYGTAYGVDYWGQGTSVTVSS
VL: not shown
notes: Control BTE; also called Okt3BTE; chimeric BTE using the mouse monoclonal Ab VH and VL domains
B2: Humanized antibody VH1 + VL1 (antibody, human IgG1, kappa, V domains shown)
VH: QVQLVQSGAEVKKPGSSVKVSCKASGYTFSNYLMNWVRQAPGQGLEWMGRIDPYDGDIDYNQNFKDRVTITADKSTSTAYMELSSLRSEDTAVYYCARGYGTAYGVDYWGQGTLVTVSS
VL: DIVMTQSPDSLAVSLGERATINCRASESVDNYGISFMNWYQQKPGQPPKLLIYAASRQGSGVPDRFSGSGSGTDFTLTISSLQAEDVAVYYCQQSKEVPWTFGGGTKLEIKR
notes: also called Humanized VH1-VL1; U3621EI120 VH1+VL1
B3: Humanized antibody VH1(G56A) + VL1 (antibody, human IgG1, kappa, V domains shown)
VH: B2 VH with G56A
VL: B2 VL
notes: also called VHG56A-VL1; Humanized VHG56A-VL1
B4: Chimeric antibody (VH and VL of murine Ab clone 47 in human constant regions) (antibody, V domains shown)
VH: B1 VH
VL: not shown
notes: Full-length IgG, murine variable regions with human constant regions; also called chimeric IgG; Chimeric Ab
B5: Humanized antibody VH2 + VL3 (antibody, human IgG1, kappa, V domains shown)
VH: B2 VH with S16A, G44R, A72R, K74T, T76A
VL: EIVLTQSPATLSLSPGERATLSCRASESVDNYGISFMNWYQQKPGQAPRLLIYAASRQGSGIPARFSGSGSGTDFTLTISSLEPEDFAVYYCQQSKEVPWTFGGGTKLEIKR
notes: also called U3621EI120 VH2+VL3
B6: Humanized antibody VH1 + VL4 (antibody, human IgG1, kappa, V domains shown)
VH: B2 VH
VL: B5 VL with L4M, L13V, D74E, E83Q, P84S
notes: also called U3621EI120 VH1+VL4
B7: Ab Vh1-VL1W100F (antibody, human IgG1, kappa, V domains shown)
VH: B2 VH
VL: B2 VL with W100F
notes: also called single mutant W100F
B8: Ab Vh1G56A-VL1W100F (antibody, human IgG1, kappa, V domains shown)
VH: B2 VH with G56A
VL: B2 VL with W100F
notes: also called double mutant
B9: Humanized antibody VH2 + VL2 (antibody, human IgG1, kappa, V domains shown)
VH: B2 VH with S16A, G44R, A72R, K74T, T76A
VL: DIQMTQSPSSLSASVGDRVTITCRASESVDNYGISFMNWYQQKPGKAPKLLIYAASRQGSGVPSRFSGSGSGTDFTLTISSLQPEDFATYYCQQSKEVPWTFGGGTKLEIKR
B10: Humanized antibody VH4 + VL1 (antibody, human IgG1, kappa, V domains shown)
VH: B2 VH with S16A, P41T, A72R, D73N, K74T, T76I
VL: B2 VL
B11: Humanized antibody VH3 + VL4 (antibody, human IgG1, kappa, V domains shown)
VH: B2 VH with S16A, I70M, A72R, K74T, A79V
VL: B5 VL with L4M, L13V, D74E, E83Q, P84S
B12: Humanized antibody VH4 + VL2 (antibody, human IgG1, kappa, V domains shown)
VH: B2 VH with S16A, P41T, A72R, D73N, K74T, T76I
VL: B9 VL
B13: Humanized antibody VH4 + VL3 (antibody, human IgG1, kappa, V domains shown)
VH: B2 VH with S16A, P41T, A72R, D73N, K74T, T76I
VL: B5 VL
B14: Humanized antibody VH1 + VL2 (antibody, human IgG1, kappa, V domains shown)
VH: B2 VH
VL: B9 VL
B15: Humanized antibody VH2 + VL4 (antibody, human IgG1, kappa, V domains shown)
VH: B2 VH with S16A, G44R, A72R, K74T, T76A
VL: B5 VL with L4M, L13V, D74E, E83Q, P84S
B16: Humanized antibody VH3 + VL3 (antibody, human IgG1, kappa, V domains shown)
VH: B2 VH with S16A, I70M, A72R, K74T, A79V
VL: B5 VL
B17: Humanized antibody VH4 + VL4 (antibody, human IgG1, kappa, V domains shown)
VH: B2 VH with S16A, P41T, A72R, D73N, K74T, T76I
VL: B5 VL with L4M, L13V, D74E, E83Q, P84S
B18: Humanized antibody VH3 + VL2 (antibody, human IgG1, kappa, V domains shown)
VH: B2 VH with S16A, I70M, A72R, K74T, A79V
VL: B9 VL
B19: Humanized antibody VH3 + VL1 (antibody, human IgG1, kappa, V domains shown)
VH: B2 VH with S16A, I70M, A72R, K74T, A79V
VL: B2 VL
B20: Humanized antibody VH2 + VL1 (antibody, human IgG1, kappa, V domains shown)
VH: B2 VH with S16A, G44R, A72R, K74T, T76A
VL: B2 VL
B21: Humanized antibody VH1 + VL3 (antibody, human IgG1, kappa, V domains shown)
VH: B2 VH
VL: B5 VL
B22: Humanized antibody VH1 M34A-VL1 (antibody, human IgG1, kappa, V domains shown)
VH: B2 VH with M34A
VL: B2 VL
notes: Antibody purified on protein A
B23: Humanized antibody VH1-VL1 M37A (antibody, human IgG1, kappa, V domains shown)
VH: B2 VH
VL: B2 VL with M37A
B24: Humanized antibody VH1-VL1 Q58E (antibody, human IgG1, kappa, V domains shown)
VH: B2 VH
VL: B2 VL with Q58E
B25: Humanized antibody VH1 D52E-VL1 (antibody, human IgG1, kappa, V domains shown)
VH: B2 VH with D52E
VL: B2 VL
notes: also called VH1 MD52E-VL1
B26: Humanized antibody VH1-VL1 Q94E (antibody, human IgG1, kappa, V domains shown)
VH: B2 VH
VL: B2 VL with Q94E

Target: T1, human recombinant IL13Rα2hFc (cat …)
Assay: plate ELISA on coated IL13Rα2hFc (1 µg/mL), detection with anti-6xHis-HRP, OD450 [continued) D]

EC50 (read off the curve)	Binder
~0.5 mg/L	B1

Target: T2, Human IL13Rα2
Assay: plate ELISA on human recombinant IL13Rα2, OD405, N=3

EC50 (read off the curve)	Binder
~0.02 mg/L	B2
~0.02 mg/L	B3
~0.03 mg/L	B4

Target: T2, Human IL13Rα2
Assay: SPR Biacore T200, purified IgG Fc-captured, IL13Rα2 as analyte

Kd	koff	kon	Binder
0.283 nM	0.000191 s⁻¹	676000 M⁻¹ s⁻¹	B2
0.513 nM	0.00042 s⁻¹	820000 M⁻¹ s⁻¹	B5
0.297 nM	0.00022 s⁻¹	741000 M⁻¹ s⁻¹	B6
1.45 nM	0.000477 s⁻¹	330000 M⁻¹ s⁻¹	B4

Target: T2, Human IL13Rα2
Assay: SPR Biacore T200, 25 C, antibody captured on Protein A chip, IL13Ra2 analyte 0.625-80 nM

Kd	koff	kon	Binder
0.326 nM	0.000334 s⁻¹	1.03e+06 M⁻¹ s⁻¹	B7
0.277 nM	0.000284 s⁻¹	1.02e+06 M⁻¹ s⁻¹	B8

Target: T2, Human IL13Rα2
Assay: SPR Biacore 8K affinity ranking, antibody supernatant Fc-captured, 100 nM IL13Rα2 analyte

Kd	koff	kon	Binder
0.768 nM	0.000329 s⁻¹	429000 M⁻¹ s⁻¹	B2
1.17 nM	0.000761 s⁻¹	649000 M⁻¹ s⁻¹	B5
0.857 nM	0.000555 s⁻¹	648000 M⁻¹ s⁻¹	B9
0.727 nM	0.000424 s⁻¹	583000 M⁻¹ s⁻¹	B10
0.984 nM	0.000615 s⁻¹	625000 M⁻¹ s⁻¹	B11
0.597 nM	0.000445 s⁻¹	746000 M⁻¹ s⁻¹	B12
0.877 nM	0.000675 s⁻¹	769000 M⁻¹ s⁻¹	B13
0.758 nM	0.000312 s⁻¹	412000 M⁻¹ s⁻¹	B14
1.35 nM	0.000748 s⁻¹	555000 M⁻¹ s⁻¹	B15
1.13 nM	0.000702 s⁻¹	620000 M⁻¹ s⁻¹	B16
0.594 nM	0.000501 s⁻¹	844000 M⁻¹ s⁻¹	B17
0.698 nM	0.000595 s⁻¹	852000 M⁻¹ s⁻¹	B18
0.599 nM	0.000269 s⁻¹	449000 M⁻¹ s⁻¹	B6
0.661 nM	0.000595 s⁻¹	901000 M⁻¹ s⁻¹	B19
0.704 nM	0.000417 s⁻¹	593000 M⁻¹ s⁻¹	B20
0.9 nM	0.000463 s⁻¹	514000 M⁻¹ s⁻¹	B21
1.07 nM	0.000544 s⁻¹	511000 M⁻¹ s⁻¹	B4

Target: T2, Human IL13Rα2
Assay: SPR Biacore T200, antibody Fc-captured, IL13Rα2 as analyte

Kd	koff	kon	Binder
1.44 nM	0.000523 s⁻¹	363000 M⁻¹ s⁻¹	B4

Target: T2, Human IL13Rα2
Assay: plate ELISA on human recombinant IL13Rα2, OD405, N=4

EC50 (read off the curve)	binding result	Binder
~0.02 mg/L	–	B2
~0.03 mg/L	–	B22
~0.03 mg/L	–	B7
–	binds	B23
–	binds	B24
~0.04 mg/L	–	B25
~0.01 mg/L	–	B26

Target: T2, Human IL13Rα2
Assay: SPR Biacore T200, antibody captured, IL13Rα2 analyte 0.9375-60 nM

Kd	koff	kon	Binder
0.257 nM	0.00019 s⁻¹	740000 M⁻¹ s⁻¹	B2
0.215 nM	0.000156 s⁻¹	727000 M⁻¹ s⁻¹	B3

Target: T2, Human IL13Rα2
Assay: plate ELISA on human IL13Rα2, OD405, N=4 [continued) B]

EC50 (read off the curve)	Binder
~0.05 mg/L	B2
~0.03 mg/L	B7
~0.03 mg/L	B8
